Laboratory results reported in a protein production outcome set (Wang et al. 2014).

Assay: label from the status in PepcDB records

In the case of “MNIQIILSLIFSMILMACTTSSPQKDLSRICDSSGCSDRSGNYVSNHSSAASSDEEARIRVLEDVARQDPRAAYDLGLRYFRGDGVRQDSYQALQWMREAAERGDLNAQKALGRLYLTGLEEMGADYREAEKWLRIAASRGDKESEQLLVEAAAFASEERRSGEIYHRWVNRWQPVFYQRWYYGYPYLGTWRGNYWYY”, the protein production is reported as “failed”.

For “MSLPPSRPETLSIPEALHRAHAHWSAGQAAQAELLCQRVLAAWPGQADALHLLGLMAHAYGHLDLAIAHLRQACLAPRAPAAYSSNLAEMYRQKGLLAEAEDAARRAVAMDPALVSGWNNLGIVLQEAGKFAESLDCLERVILLQPDGAQAHNNLANTLRRLERLERAESHYRQALELDPAYAEAHSNLAFLLSAQGRHDEAAAAAQHAIELSPRLVDAYLNLAEAEMGRHRHEAALRVLDTLSTFAPQHPAALTARANVLKRVERLDEALAVARQAVVLAPRSAEAHHALAMALQTLGQTDEALPHFEQAARLPGAVAEEALVGRATLLMEAGRRDAARAAFDQALEQFPGSVQALAGRADARTFTAGDPDIAALEACLAEGERRSLRDRISAHFALGKAYLDLQDPARAFHHLDAGNRQKRSTFTYDGAASRRWMERIAEAFPPERHDPLHATGEPSALPVFIVGMPRSGTTLIEQIVSSHPQVMGAGELSALRLVVEGSGLFPDGMQRLAGEARGALFRQLGQAYLSRVAPLAQGRARLVDKMPSNFLYARLIPLILPGARIIHARRDPVDTCLSCYTKLFAGEQQFAYDQAELGALYRGYARLMAHWRAVLPPGCFIEVDYEAVVDDLEGEARRLIDFLDLPWNPACLHFHDNRRVVRTASVNQVRQPIYTTSKGRWQAYADYLGPLLEALGVEAP”, the protein production was “failed”.

For “MKTLQTHRVLQALIGHFTPFLESGITELMINTEQELWLYKVNNTREKRGHALFDKAFLLRFCEQLASFRGLFFDEEHPTLNCSIPFTRYRVSANHFSITTNNQITLNIRVPRLKPLSLEDFTFKASDPKSLKDLALKGHNILISGETSSGKTSLLNALLDCVNKDERVVSVEDSQELDLKAFSNCVGLLVGKQENTRFNYEDALNMAMRLNPDRLIVGEIDTRNAALFLRLGNTGHKGMLSTIHANSAQNTLEALSLNLSMRYMYSLDKDLMRAYFKSAIDVIVHVNRINNERQIAEVLWTKEL”, the protein production was “failed”.

For “MGKKQKMKKAAQMATAAEKLKTAAEKSKTAADNVVAKEKPAEEASPSPSGSGKKGKPKATQKPNVAKALQKEISSSEDALDVKNKPPAGFSGAKGKPHIMGQMDPAYRNKIKKLMSLAKQLPPNVFSLPNSQKEEGASAAKSCVVEDDQSTDSDDAPDLVEADPKETQPDEQGQLGTVAVRTREVSKQSRGERKARRILMKLDLKPMENVARVTMKKGKNILLYIDQPDVYRVAHSSTYIFFGEICVEDTSTTSVASQAAVKAAERFRGTSPAGRQGNEDGKAPGEESPHDDDDDENDGEDADAMGLHAKDIELVQMQAACSRKKAIQALLKNDNDVVNAIMALTVG”, the protein production was “failed”.

For “MSDMFLPARMRKLKIITLDQYSDSVVRSLHEEGVTQIDDISERIQQDAEWRQILKPSRATPYTGRVSSLLMKTSGILDFLGSVAAEEKGLRDTIREFINPPIFEKREVEELDTESLIERAEETLGRVESETRVMEEKLNELDSERSAVESSLSVAEKLKDFDIDFSDLQDSEYITGIAGRITAENLPELRDKLADITDELVISDREGENKAERILIIVTLKKHADSIASVLRRMEFERFEISELQGRPSEIISSSKTRLEEISRERKEIISKLRDINAEWEDELLVLREQLEIEKERNEVFSLFGETRKTVMLEAWVPLKEADRVIAVVEESSEGTALTDLEDPDPEEVPVLLDNPRFAKPYETFVEMYSPLKYNEIDPTIFMAFVFPFFFGFCLTDAGYGIIDALIGFILYRGLGKVNNFMRNFGIIMMSCGVWAFILGMVTNGFIGDFFPRFFNITLPTVIPAIDAFVNPQNILIMALTVGVLHINFGLILGARNNIRLGNMREALGSQIVWLILELGIILYLVGGMIFGAPLIILAFAMLLYYNGLFGLMDVSGFLGTLLSYARLLALCLSTGGIAMTVNILTGLSYEMIPVIGVVLAPIIFVFGHIANNAFQSLGAFINSLRLHYVEFFAQFYMGGKNKFNAFRAERNFTKIRR”, the protein production was “failed”.

In the case of “MIVSVVIPVAKEGNTLYERIHLINKHFNSLSSSHKFSYEIILVSDIFHKPTLKAMIRLAKENVAKCLLLTQRIGKGGSIKNAIPFSRGDYIVILDADIPVRPIFINQAVVLAMNLGIDLIIANRVYRTHSLLRRVLSVAYNSLVNLLFKTGLRDHQAGLKILSRRAAKIILMKRTRTDGLAYDTEIVVWAKRHGLRYRAVNVVWREQREGSTIPPMRALLTMLADLIMLRLLTLAGKYVALQKLVIGRVIDLGNIHTVGQEFMTVIRASRPKNHLLNVLRKLYIAVALRR”, the protein production is reported as “failed”.

For “ESYWRSRMIDAVTSDEDKVAPVYKLEEICDLLRSSHVSIVKEFSEFILKRLDNKSPIVKQKALRLIKYAVGKSGSEFRREMQRNSVAVRNLFHYKGHPDPLKGDALNKAVRETAHETISAIFSEENG”, the protein production was “not failed”.

With “EKEFYLDSSSEALEEKAITHTSKKPDTPEEITISLNGHLFTGNTEQPLLMQVEEAGLSINNSCRAGLCGACRVTLESGEVEQEDSPALNQKLKEAGMILACCSVPKTDVEIVD” the protein production was “failed”.

In the case of “MGHHHHHHSHMDTPENVLQMLEAHMQSYKGNDPLGEWERYIQWVEENFPENKEYLITLLEHLMKEFLDKKKYHNDPRFISYCLKFAEYNSDLHQFFEFLYNHGIGTLSSPLYIAWAGHLEAQGELQHASAVLQRGIQNQAEPREFLQQQYRLFQTRLTETHLPAQAR”, the protein production is reported as “failed”.

In the case of “MGVANLRVMHYVHKDKAFAYWSCTCVYAPESRYCSEEHKKMALAEREYELPHNFANVHLHTNMEDLVLPKIISYLRDPQLGIIEIPNLQYIDDVFNVTPTEQPDMFSTNLDEREEFNIWLFMMIS”, the protein production is reported as “failed”.

In the case of “MSLVKIVRIETFPLFHRLEKPYGDANGFKRYRTCYLIRIITESGIDGWGECVDWLPALHVGFTKRIIPFLLGKQAGSRLSLVRTIQKWHQRAASAVSMALTEIAAKAADCSVCELWGGRYREEIPVYASFQSYSDSPQWISRSVSNVEAQLKKGFEQIKVKIGGTSFKEDVRHINALQHTAGSSITMILDANQSYDAAAAFKWERYFSEWTNIGWLEEPLPFDQPQDYAMLRSRLSVPVAGGENMKGPAQYVPLLSQRCLDIIQPDVMHVNGIDEFRDCLQLARYFGVRASAHAYDGSLSRLYALFAQACLPPWSKMKNDHIEPIEWDVMENPFTDLVSLQPSKGMVHIPKGKGIGTEINMEIVNRYKWDGSAYEGHHHHHH”, the protein production is reported as “not failed”.

With “MLGELDLATVILMQKCSYIVGLLSFIYLKMSNRGLPGPVHLAAGFAAMTVGSTLAGYGEWKILSPALWELGSVLFGIAGYALIWLGLKTLSDGRFVNRKTILFTCLVALLAIGVALQVAGNNTFRAALFNGCAALAYLGGAGVLFARWRKEPLLSRLALGAITGVSGLISLAVMKSVLFPGYASINLVTAFFFIIMLNFAISLFVMMLVAERSERKLLVLANTDPLTGVKNRRFFFQTMPAAPDPADAAMLLDIDHFKSINDRFGHAVGDSVLQEVARRISGSIRGGDVLARYGGEEFIIFLPGAGVDKACMIGERIRDAVAINEVDCGGLRVGVTISIGVATTGDMRCDLQMLAEKADRALYRAKTEGRNCVREALAA” the protein production was “failed”.

With “PYYLFMTMYWHHTSTTPVSTVLITHGYAEHQGRYSALVRSLLNYNFDVVTFDLPGHGYAPGPRACVDVDKLVDFHVALRHRAEQDCRLRTETMCLFGHSMGGLITALSVLEDSSNVSAVALSGPAFSPFPKTPRVVTRMLRCSARIAPRLKVLALPQDAISRDPEVVAAYANDPRNYTGRVPLLTGASMALAGQKALAQASQWDRSVPLLVMHGSADRLADIEGSRNFAASAGGTMRPVDGAFHEIFNEPEAPQLRAELCEWLHANCG” the protein production was “failed”.

With “LQQFLDALASSPEKIEFETTMAVIEDNYDFTPAAFTNGNTQNDANENNGSCKIFAFGLLNALDKEATLACFGRFYREDVLLHPENNDHQNIRNFMVTGWEGIQFETSALTAK” the protein production was “not failed”.

For “AIAITGETEPACVEDASQLAEQRNGAPVMEAGCAAVPVEANATKRGYWRQRTLHSWFIGRKPQRTCIAVDIDEVLAFFVPELCAFHNKRYGTRLQATDFHSYRFAEVWGGTDTDAIRKVHEFFRTPAFQELQPIPGAKQVLQSRLARFRFVVVTSRQLVIEQETRAWLDKHFSGIFEAIYLGNQWALHPNGEHGTGVGSAAQEPQRLFANRRRKSQVCKACGAAVLIDDLPHNLLDCSENGVFGVLFDFQGQYGWSKSPAFESKDIAVVHSWEAVGELLDRL”, the protein production was “failed”.
